The source of these data is the supplement of paper PMC9112550, “Optimization of the antimicrobial peptide Bac7 by deep mutational scanning” (BMC Biology, 2022).
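Also: peptides expressed intracellularly from a pBAD plasmid library in pooled LB shake-flask culture, induced with 0.3% L-arabinose, DNA abundance read by NGS, three biological replicates, DESeq2 with apeglm shrinkage.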

The subject of the data set is Escherichia coli TOP10. Briefly: shrunken log2 fold change of peptide-encoding DNA abundance (4.5 h post-induction vs induction); higher = less antimicrobial activity (less host growth inhibition). The following applies: time post-induction: 4.5 h; library: site-saturation at positions 5, 18, 19, 20.
Regarding RRIRFRPPRLPRPRPRPPADPRP, the “shrunken log2 fold change” value turned out to be 0.789.

For RRIRFRPPRLPRPRPRPKTMPRP, the “shrunken log2 fold change” value is -0.197.

On to RRIRIRPPRLPRPRPRPQKCPRP, for which the “shrunken log2 fold change” value was -0.506.

Turning to RRIRYRPPRLPRPRPRPKARPRP, the “shrunken log2 fold change” value was 0.0182.

Consider RRIRSRPPRLPRPRPRPYWIPRP, for which the “shrunken log2 fold change” value was -0.267.

On to RRIRCRPPRLPRPRPRPNTEPRP, for which the “shrunken log2 fold change” value is -0.161.

For the sequence RRIRSRPPRLPRPRPRPMQGPRP, the “shrunken log2 fold change” value is -0.181.

Consider RRIRTRPPRLPRPRPRPSGPPRP, for which the “shrunken log2 fold change” value is -0.339.

Turning to RRIRIRPPRLPRPRPRPTYTPRP, the “shrunken log2 fold change” value is -0.405.

Take RRIRIRPPRLPRPRPRPQDNPRP: the “shrunken log2 fold change” value is -0.954.

On to RRIRHRPPRLPRPRPRPEVIPRP, for which the “shrunken log2 fold change” value stood at 0.0357.

Turning to RRIRSRPPRLPRPRPRPYFHPRP, the “shrunken log2 fold change” value was -0.853.

For the sequence RRIRVRPPRLPRPRPRPEKKPRP, the “shrunken log2 fold change” value was -0.0337.

With RRIRLRPPRLPRPRPRPIWHPRP, the “shrunken log2 fold change” value was -0.0382.

As for RRIRLRPPRLPRPRPRPDAHPRP, the “shrunken log2 fold change” value came to 0.133.

As to RRIRCRPPRLPRPRPRPNREPRP, the “shrunken log2 fold change” value was -0.134.

RRIRARPPRLPRPRPRPDLHPRP: the “shrunken log2 fold change” value is 0.474.

In the case of RRIRLRPPRLPRPRPRPVTAPRP, the “shrunken log2 fold change” value was found to be 0.213.

On to RRIRERPPRLPRPRPRPFRCPRP, for which the “shrunken log2 fold change” value stood at 0.00668.

RRIRKRPPRLPRPRPRPKHFPRP: the “shrunken log2 fold change” value was 0.024.

Regarding RRIRSRPPRLPRPRPRPKFFPRP, the “shrunken log2 fold change” value is 0.113.

In the case of RRIRVRPPRLPRPRPRPSEHPRP, the “shrunken log2 fold change” value was -0.779.

For RRIRCRPPRLPRPRPRPASRPRP, the “shrunken log2 fold change” value was 0.096.

Take RRIRERPPRLPRPRPRPTSLPRP: the “shrunken log2 fold change” value was -0.647.

RRIRRRPPRLPRPRPRPYFIPRP: the “shrunken log2 fold change” value is -0.432.

RRIRTRPPRLPRPRPRPLSCPRP: the “shrunken log2 fold change” value is -0.000228.

Regarding RRIRWRPPRLPRPRPRPVSLPRP, the “shrunken log2 fold change” value was 0.15.

RRIRDRPPRLPRPRPRPRFPPRP: the “shrunken log2 fold change” value came out at 1.75.

For the sequence RRIRIRPPRLPRPRPRPRDFPRP, the “shrunken log2 fold change” value was -0.157.

RRIRGRPPRLPRPRPRPEGHPRP: the “shrunken log2 fold change” value stood at 1.8.

As for RRIRLRPPRLPRPRPRPFQLPRP, the “shrunken log2 fold change” value was -0.402.

For RRIRHRPPRLPRPRPRPFNFPRP, the “shrunken log2 fold change” value was -0.648.

Turning to RRIRFRPPRLPRPRPRPCQRPRP, the “shrunken log2 fold change” value is -0.124.

On to RRIRHRPPRLPRPRPRPEHQPRP, for which the “shrunken log2 fold change” value is -0.291.

In the case of RRIRYRPPRLPRPRPRPTEKPRP, the “shrunken log2 fold change” value was -0.0336.

In the case of RRIRCRPPRLPRPRPRPHSKPRP, the “shrunken log2 fold change” value was -0.438.

As to RRIRFRPPRLPRPRPRPTVWPRP, the “shrunken log2 fold change” value turned out to be 0.19.

In the case of RRIRNRPPRLPRPRPRPWRTPRP, the “shrunken log2 fold change” value was -0.323.

With RRIRPRPPRLPRPRPRPRFQPRP, the “shrunken log2 fold change” value is -0.0819.

For RRIRARPPRLPRPRPRPSWIPRP, the “shrunken log2 fold change” value is -0.0935.

As for RRIRDRPPRLPRPRPRPQVQPRP, the “shrunken log2 fold change” value is -0.0379.

For the sequence RRIRKRPPRLPRPRPRPRHMPRP, the “shrunken log2 fold change” value is -0.0275.

In the case of RRIRKRPPRLPRPRPRPHFWPRP, the “shrunken log2 fold change” value amounted to 0.188.

For the sequence RRIRMRPPRLPRPRPRPHFRPRP, the “shrunken log2 fold change” value turned out to be 0.0286.

Regarding RRIRWRPPRLPRPRPRPHTLPRP, the “shrunken log2 fold change” value was -0.325.

With RRIRNRPPRLPRPRPRPLFYPRP, the “shrunken log2 fold change” value is -0.586.

RRIRYRPPRLPRPRPRPCCNPRP: the “shrunken log2 fold change” value was found to be 0.00367.

In the case of RRIRSRPPRLPRPRPRPWWVPRP, the “shrunken log2 fold change” value was -0.2.

Take RRIRMRPPRLPRPRPRPWDNPRP: the “shrunken log2 fold change” value was found to be 0.013.

With RRIRWRPPRLPRPRPRPSVLPRP, the “shrunken log2 fold change” value was -0.225.

On to RRIRERPPRLPRPRPRPQGKPRP, for which the “shrunken log2 fold change” value is -0.345.

For the sequence RRIRTRPPRLPRPRPRPNDYPRP, the “shrunken log2 fold change” value was -0.523.

On to RRIRGRPPRLPRPRPRPFYDPRP, for which the “shrunken log2 fold change” value came to 0.0844.

For RRIRLRPPRLPRPRPRPCNTPRP, the “shrunken log2 fold change” value is -0.186.

RRIRCRPPRLPRPRPRPREGPRP: the “shrunken log2 fold change” value amounted to 1.09.

As to RRIRHRPPRLPRPRPRPYLHPRP, the “shrunken log2 fold change” value was -0.175.

In the case of RRIRRRPPRLPRPRPRPCATPRP, the “shrunken log2 fold change” value was found to be 0.586.

In the case of RRIRTRPPRLPRPRPRPNGVPRP, the “shrunken log2 fold change” value was -0.0427.

As for RRIRARPPRLPRPRPRPIKNPRP, the “shrunken log2 fold change” value worked out at 0.00937.

As for RRIRDRPPRLPRPRPRPQEAPRP, the “shrunken log2 fold change” value was -0.0652.

For RRIRPRPPRLPRPRPRPWCQPRP, the “shrunken log2 fold change” value turned out to be 0.0224.

As to RRIRPRPPRLPRPRPRPFRSPRP, the “shrunken log2 fold change” value was -0.152.

Take RRIRGRPPRLPRPRPRPGDLPRP: the “shrunken log2 fold change” value came to 2.41.

As to RRIRPRPPRLPRPRPRPGCLPRP, the “shrunken log2 fold change” value came to 0.339.

RRIRTRPPRLPRPRPRPYEMPRP: the “shrunken log2 fold change” value was -0.482.

For the sequence RRIRPRPPRLPRPRPRPQEEPRP, the “shrunken log2 fold change” value is 0.0679.

RRIRHRPPRLPRPRPRPDTSPRP: the “shrunken log2 fold change” value was -0.0188.

For RRIRHRPPRLPRPRPRPGPIPRP, the “shrunken log2 fold change” value is -0.133.

Regarding RRIRYRPPRLPRPRPRPWVTPRP, the “shrunken log2 fold change” value was -0.477.

With RRIRSRPPRLPRPRPRPGDRPRP, the “shrunken log2 fold change” value was -0.267.

With RRIRTRPPRLPRPRPRPTHFPRP, the “shrunken log2 fold change” value came out at 0.301.

RRIRMRPPRLPRPRPRPTLEPRP: the “shrunken log2 fold change” value stood at 0.259.

As for RRIRERPPRLPRPRPRPSSTPRP, the “shrunken log2 fold change” value is -0.32.

For the sequence RRIRQRPPRLPRPRPRPIIKPRP, the “shrunken log2 fold change” value was -0.111.

Turning to RRIRWRPPRLPRPRPRPMHAPRP, the “shrunken log2 fold change” value came out at 0.542.

For RRIRIRPPRLPRPRPRPKCPPRP, the “shrunken log2 fold change” value is -0.263.

For the sequence RRIRFRPPRLPRPRPRPMNDPRP, the “shrunken log2 fold change” value was -0.122.

In the case of RRIRIRPPRLPRPRPRPHSMPRP, the “shrunken log2 fold change” value was -0.382.

With RRIRTRPPRLPRPRPRPVPLPRP, the “shrunken log2 fold change” value was -0.145.

Take RRIRRRPPRLPRPRPRPFTKPRP: the “shrunken log2 fold change” value was -0.221.

For the sequence RRIRKRPPRLPRPRPRPVQEPRP, the “shrunken log2 fold change” value turned out to be 0.0683.

Regarding RRIRDRPPRLPRPRPRPPHFPRP, the “shrunken log2 fold change” value is 0.173.

Regarding RRIRNRPPRLPRPRPRPFMCPRP, the “shrunken log2 fold change” value is -0.202.

RRIRIRPPRLPRPRPRPFILPRP: the “shrunken log2 fold change” value was -0.275.

Consider RRIRVRPPRLPRPRPRPYTWPRP, for which the “shrunken log2 fold change” value is -0.364.

For RRIRWRPPRLPRPRPRPQIAPRP, the “shrunken log2 fold change” value is 0.141.

For the sequence RRIRWRPPRLPRPRPRPNPSPRP, the “shrunken log2 fold change” value is 0.219.

For RRIRPRPPRLPRPRPRPSNCPRP, the “shrunken log2 fold change” value is -0.909.

Regarding RRIRNRPPRLPRPRPRPDPDPRP, the “shrunken log2 fold change” value stood at 0.0692.

Regarding RRIRCRPPRLPRPRPRPVLRPRP, the “shrunken log2 fold change” value was found to be 0.183.

RRIRIRPPRLPRPRPRPKDGPRP: the “shrunken log2 fold change” value is -0.105.

As for RRIRWRPPRLPRPRPRPIQHPRP, the “shrunken log2 fold change” value was 0.00853.

With RRIRDRPPRLPRPRPRPMWYPRP, the “shrunken log2 fold change” value is -0.0225.

For the sequence RRIRYRPPRLPRPRPRPDRMPRP, the “shrunken log2 fold change” value is -0.566.

RRIRVRPPRLPRPRPRPREFPRP: the “shrunken log2 fold change” value came out at 0.126.

On to RRIRFRPPRLPRPRPRPSYVPRP, for which the “shrunken log2 fold change” value is -0.501.

Turning to RRIRERPPRLPRPRPRPDSAPRP, the “shrunken log2 fold change” value was -0.213.

For the sequence RRIRARPPRLPRPRPRPEHRPRP, the “shrunken log2 fold change” value amounted to 0.0198.

Turning to RRIRFRPPRLPRPRPRPASDPRP, the “shrunken log2 fold change” value was -0.32.

RRIRCRPPRLPRPRPRPGNRPRP: the “shrunken log2 fold change” value came to 0.0246.

For RRIRNRPPRLPRPRPRPENRPRP, the “shrunken log2 fold change” value is -0.0205.

Regarding RRIRLRPPRLPRPRPRPHIEPRP, the “shrunken log2 fold change” value is -0.0305.

As to RRIRPRPPRLPRPRPRPAMPPRP, the “shrunken log2 fold change” value was 0.246.

For the sequence RRIRARPPRLPRPRPRPRESPRP, the “shrunken log2 fold change” value turned out to be 0.198.

For RRIRCRPPRLPRPRPRPENYPRP, the “shrunken log2 fold change” value was -0.474.

Consider RRIRIRPPRLPRPRPRPTVWPRP, for which the “shrunken log2 fold change” value amounted to 0.163.

RRIRQRPPRLPRPRPRPRSLPRP: the “shrunken log2 fold change” value is -0.0177.

With RRIRIRPPRLPRPRPRPPPFPRP, the “shrunken log2 fold change” value was 0.481.

For RRIRCRPPRLPRPRPRPPCVPRP, the “shrunken log2 fold change” value was 0.0597.

As to RRIRYRPPRLPRPRPRPGWCPRP, the “shrunken log2 fold change” value is -0.128.

On to RRIRYRPPRLPRPRPRPMIIPRP, for which the “shrunken log2 fold change” value is -0.138.

As for RRIRRRPPRLPRPRPRPKQMPRP, the “shrunken log2 fold change” value came out at 0.29.

For the sequence RRIRYRPPRLPRPRPRPNLDPRP, the “shrunken log2 fold change” value is -0.148.

Turning to RRIRNRPPRLPRPRPRPDEKPRP, the “shrunken log2 fold change” value is -0.133.

Consider RRIRLRPPRLPRPRPRPSNQPRP, for which the “shrunken log2 fold change” value is -1.04.

Take RRIRHRPPRLPRPRPRPHHQPRP: the “shrunken log2 fold change” value was -0.364.

Consider RRIRCRPPRLPRPRPRPYRIPRP, for which the “shrunken log2 fold change” value is -0.263.

Take RRIRYRPPRLPRPRPRPHTHPRP: the “shrunken log2 fold change” value was -1.17.

On to RRIRKRPPRLPRPRPRPWTDPRP, for which the “shrunken log2 fold change” value was -0.00992.

For the sequence RRIRKRPPRLPRPRPRPDHTPRP, the “shrunken log2 fold change” value turned out to be 0.0503.

Turning to RRIRHRPPRLPRPRPRPDAEPRP, the “shrunken log2 fold change” value amounted to 0.205.

Take RRIRHRPPRLPRPRPRPKVDPRP: the “shrunken log2 fold change” value is -0.0132.

With RRIRPRPPRLPRPRPRPESWPRP, the “shrunken log2 fold change” value was found to be 1.54.

For the sequence RRIRDRPPRLPRPRPRPMTTPRP, the “shrunken log2 fold change” value was -0.0624.

In the case of RRIRRRPPRLPRPRPRPNQHPRP, the “shrunken log2 fold change” value came to 0.00413.
